Data on 2 molecules can be found in paper PMC2807882, “Conservation of DNA-binding specificity and oligomerisation properties within the p53 family”.

For data set [1], the target named is Hsp53 (Homo sapiens, UniProt P04637 1-393). As to the kind of experiment: fluorescence anisotropy direct titration; 25 mM sodium phosphate (purification buffer pH 7.2), 225 mM NaCl, 10% v/v glycerol, 5 mM DTT, 0.2 mg/mL BSA, 22 C. The settings on record: protein: recombinant; tags: N-terminal 6xHis-lipoyl-TEV tag, cleaved; chain copies: 4; label: 5'-Alexa488. On the technique in general: In fluorescence polarisation assays a small probe gives low polarisation when free and higher when bound to something large.
Chain of Hsp53 (P04637 whole entry): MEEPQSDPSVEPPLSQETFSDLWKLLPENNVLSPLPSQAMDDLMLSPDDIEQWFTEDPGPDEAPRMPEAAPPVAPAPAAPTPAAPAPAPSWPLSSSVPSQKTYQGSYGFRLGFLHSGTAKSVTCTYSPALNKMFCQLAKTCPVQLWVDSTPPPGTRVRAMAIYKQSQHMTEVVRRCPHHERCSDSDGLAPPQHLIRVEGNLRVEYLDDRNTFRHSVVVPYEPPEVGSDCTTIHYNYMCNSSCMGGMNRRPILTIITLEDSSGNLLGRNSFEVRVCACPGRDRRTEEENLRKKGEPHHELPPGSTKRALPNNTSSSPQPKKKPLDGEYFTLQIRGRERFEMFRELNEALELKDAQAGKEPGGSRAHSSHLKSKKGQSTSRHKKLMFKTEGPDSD

Data set [2] has as its target T1, p73CT (Homo sapiens, UniProt O15350 104-383).
T1 sequence: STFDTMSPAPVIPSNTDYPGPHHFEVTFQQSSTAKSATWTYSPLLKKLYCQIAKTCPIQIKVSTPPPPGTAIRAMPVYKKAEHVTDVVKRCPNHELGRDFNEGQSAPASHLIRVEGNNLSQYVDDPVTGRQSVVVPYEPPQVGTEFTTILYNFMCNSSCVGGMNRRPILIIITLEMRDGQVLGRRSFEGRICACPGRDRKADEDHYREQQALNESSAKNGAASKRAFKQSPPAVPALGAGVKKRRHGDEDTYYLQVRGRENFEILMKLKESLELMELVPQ
The description is as above. Particulars: protein: recombinant; tags: N-terminal 6xHis-lipoyl-TEV tag, cleaved; chain copies: 4; label: 5'-Alexa488.

Data set [3] deals with T2, ΔNp73β (Homo sapiens, UniProt O15350-9 1-450).
T2 sequence: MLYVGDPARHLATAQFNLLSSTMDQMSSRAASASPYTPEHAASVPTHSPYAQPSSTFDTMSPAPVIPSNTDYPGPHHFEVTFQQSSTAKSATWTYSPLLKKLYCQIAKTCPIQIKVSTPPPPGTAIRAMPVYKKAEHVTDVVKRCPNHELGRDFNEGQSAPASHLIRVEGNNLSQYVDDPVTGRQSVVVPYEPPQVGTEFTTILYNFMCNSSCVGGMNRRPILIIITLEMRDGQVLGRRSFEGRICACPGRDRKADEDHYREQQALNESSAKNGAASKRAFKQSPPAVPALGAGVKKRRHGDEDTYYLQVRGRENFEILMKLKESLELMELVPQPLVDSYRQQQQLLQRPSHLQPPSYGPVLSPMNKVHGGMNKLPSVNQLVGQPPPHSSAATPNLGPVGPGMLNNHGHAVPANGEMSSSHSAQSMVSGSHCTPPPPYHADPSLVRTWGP
Nature of the data set: fluorescence anisotropy, direct; 25 mM NaPi, 225 mM NaCl, 10% v/v glycerol, 5 mM DTT, 0.2 mg/mL BSA, 22°C; 20 nM labelled DNA; pH not stated for the binding assay. The settings on record: protein: recombinant; tags: N-terminal 6xHis-lipoyl-TEV tag, cleaved; chain copies: 4; label: 5'-Alexa488.

The target in data set [4] is T3, Xlp53 (Xenopus laevis, UniProt Q7T1D0 1-362). Described as above. Particulars: protein: recombinant; tags: N-terminal 6xHis-lipoyl-TEV tag, cleaved; chain copies: 4; label: 5'-Alexa488.
T3 sequence (Q7T1D0 entry or part of it): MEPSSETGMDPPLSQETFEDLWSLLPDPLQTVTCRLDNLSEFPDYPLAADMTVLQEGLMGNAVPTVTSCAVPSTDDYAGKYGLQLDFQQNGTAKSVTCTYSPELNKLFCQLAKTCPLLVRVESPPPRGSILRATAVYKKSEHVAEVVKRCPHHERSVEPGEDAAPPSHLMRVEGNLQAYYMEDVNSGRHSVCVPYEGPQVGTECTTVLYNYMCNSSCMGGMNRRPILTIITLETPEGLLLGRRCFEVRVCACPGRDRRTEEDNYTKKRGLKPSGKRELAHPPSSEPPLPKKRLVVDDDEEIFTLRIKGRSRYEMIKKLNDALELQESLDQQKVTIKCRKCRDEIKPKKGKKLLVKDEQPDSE
Data set [5] concerns the target T4, ΔNp63β (Homo sapiens, UniProt Q9H3D4-4 1-461).
T4 sequence: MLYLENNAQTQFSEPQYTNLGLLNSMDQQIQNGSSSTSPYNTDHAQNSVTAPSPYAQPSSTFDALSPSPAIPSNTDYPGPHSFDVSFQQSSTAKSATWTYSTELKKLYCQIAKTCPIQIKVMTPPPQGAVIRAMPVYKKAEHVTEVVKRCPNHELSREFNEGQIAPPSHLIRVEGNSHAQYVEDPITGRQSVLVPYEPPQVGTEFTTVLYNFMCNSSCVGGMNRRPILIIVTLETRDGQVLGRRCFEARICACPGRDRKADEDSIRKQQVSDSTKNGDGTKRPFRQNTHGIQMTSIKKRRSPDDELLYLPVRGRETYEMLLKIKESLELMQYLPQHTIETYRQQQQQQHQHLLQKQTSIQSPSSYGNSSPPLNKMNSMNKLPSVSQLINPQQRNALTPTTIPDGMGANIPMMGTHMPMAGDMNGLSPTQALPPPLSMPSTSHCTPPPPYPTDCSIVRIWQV
The description is as above. The settings on record: protein: recombinant; tags: N-terminal 6xHis-lipoyl-TEV tag, cleaved; chain copies: 4; label: 5'-Alexa488.

The target in data set [6] is T5, ΔNp63α (Homo sapiens, UniProt Q9H3D4-2 1-586).
T5 sequence: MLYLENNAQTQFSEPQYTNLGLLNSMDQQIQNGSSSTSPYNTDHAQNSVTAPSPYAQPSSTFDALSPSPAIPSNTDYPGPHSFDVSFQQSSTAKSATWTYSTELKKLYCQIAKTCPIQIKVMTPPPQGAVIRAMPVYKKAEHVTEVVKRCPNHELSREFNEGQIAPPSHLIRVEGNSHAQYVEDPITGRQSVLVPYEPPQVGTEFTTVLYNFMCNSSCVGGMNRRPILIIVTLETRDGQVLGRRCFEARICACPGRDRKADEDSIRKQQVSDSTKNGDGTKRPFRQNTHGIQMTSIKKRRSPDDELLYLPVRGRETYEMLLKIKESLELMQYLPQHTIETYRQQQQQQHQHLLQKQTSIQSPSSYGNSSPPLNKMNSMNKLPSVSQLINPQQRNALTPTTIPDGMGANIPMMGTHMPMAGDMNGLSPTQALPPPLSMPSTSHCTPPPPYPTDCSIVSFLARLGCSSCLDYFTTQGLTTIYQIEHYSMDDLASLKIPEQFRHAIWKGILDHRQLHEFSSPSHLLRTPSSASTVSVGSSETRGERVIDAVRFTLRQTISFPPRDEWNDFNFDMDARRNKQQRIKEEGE
Described as above. The settings on record: protein: recombinant; tags: N-terminal 6xHis-lipoyl-TEV tag, cleaved; chain copies: 4; label: 5'-Alexa488.

Data set [7] deals with Mmp53 (Mus musculus, UniProt P02340 1-390). Described as above. Particulars: protein: recombinant; tags: N-terminal 6xHis-lipoyl-TEV tag, cleaved; chain copies: 4; label: 5'-Alexa488.
Chain of Mmp53 (P02340 whole entry): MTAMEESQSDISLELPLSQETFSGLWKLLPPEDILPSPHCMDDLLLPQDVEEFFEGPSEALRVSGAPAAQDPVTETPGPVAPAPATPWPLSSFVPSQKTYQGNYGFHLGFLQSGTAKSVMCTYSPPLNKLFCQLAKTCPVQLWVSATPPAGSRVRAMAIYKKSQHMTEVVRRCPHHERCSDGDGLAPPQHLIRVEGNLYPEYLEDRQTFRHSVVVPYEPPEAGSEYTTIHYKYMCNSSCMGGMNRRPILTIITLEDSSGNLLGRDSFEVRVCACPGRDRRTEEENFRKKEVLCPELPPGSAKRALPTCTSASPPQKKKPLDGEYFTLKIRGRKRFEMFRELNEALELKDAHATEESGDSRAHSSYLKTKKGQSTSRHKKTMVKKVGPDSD
In data set [8] the target is T1, p73CT. The data set is described as above. The settings on record: protein: recombinant; tags: N-terminal 6xHis-lipoyl-TEV tag, cleaved; chain copies: 4; label: 5'-Alexa488.
The target in data set [9] is T3, Xlp53. As to the kind of experiment: anisotropy competition; 25 mM NaPi, 225 mM NaCl, 10% v/v glycerol, 5 mM DTT, 0.2 mg/mL BSA, 22°C; 20 nM labelled DNA; pH not stated for the binding assay. The settings on record: protein: recombinant; tags: N-terminal 6xHis-lipoyl-TEV tag, cleaved; chain copies: 4.

B1: Ref_Alexa488 (dsDNA)
DNA 1: GGACATGTCCGGACATGTCC
DNA 2: GGACATGTCCGGACATGTCC
As a reminder, the Kd is the free concentration of one partner at which half of the binding sites on the other are occupied at equilibrium, for simple one-to-one binding. For B1, the Kd in [1] is 56.2 nM; in [2], 240 nM; in data set [3], -7.26 ± 0.02 log10(M); in data set [4], -7.32 ± 0.02 log10(M); in data set [5] it was -7.13 ± 0.04 log10(M); in data set [6], -7.12 ± 0.01 log10(M). Further, the Kd in [7] is -7.02 ± 0.04 log10(M); in data set [8] it was -6.62 ± 0.04 log10(M).

B2: Ref competitor (dsDNA)
DNA 1: CGCGGACATGTCCGGACATGTCCCGC
DNA 2: GCGGGACATGTCCGGACATGTCCGCG
On to B2, for which the dissociation constant (Kd) in [9] is -7.08 log10(M).
